From publication PMC5687031

Target: full-length Spc29^2-253 (S. cerevisiae) (UniProt P33419)
Assay: SAXS

Sequence of full-length Spc29^2-253 (P33419 2-253): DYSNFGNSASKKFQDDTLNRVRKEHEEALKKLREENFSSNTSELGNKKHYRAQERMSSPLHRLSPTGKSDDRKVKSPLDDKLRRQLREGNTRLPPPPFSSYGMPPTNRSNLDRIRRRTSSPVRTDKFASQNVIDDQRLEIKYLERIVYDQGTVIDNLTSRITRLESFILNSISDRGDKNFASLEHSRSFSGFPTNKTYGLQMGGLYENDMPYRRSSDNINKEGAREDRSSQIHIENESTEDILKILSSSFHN

full-length Spc29^2-253 (from UniProt P33419 2-253) (natural protein)
stoichiometry N: 3 chains
